Source: the Human Domainome abundance scans (Beltran et al. 2025)
± gives the uncertainty stated by the source.

B1: TOX high mobility group box family member 3, residues 256 to 323; numbered along this chain, O15405 (parent)
chain: QKPVSAYALFFRDTQAAIKGQNPNATFGEVSKIVASMWDSLGEEQKQVYKRKTEAAKKEYLKALAAYR

Variants of: B1
Assay: abundance fitness (aPCA) (normalised: wild type 0, dead -1); higher = more abundant; growth selection in yeast, the domain comes from the species named
Settings: Homo sapiens
Work on E59A yielded an abundance fitness of -0.122 ± 0.061.
Variant E59S has an abundance fitness of -0.166 ± 0.068.
D13T gave an abundance fitness of -0.247 ± 0.089.
For D13H, the abundance fitness was -0.235 ± 0.12.
Variant Y60P has an abundance fitness of -0.052 ± 0.076.
For Y60F, the abundance fitness was 0.068 ± 0.29.
Variant Y60V has an abundance fitness of -0.073 ± 0.05.
Y60W showed an abundance fitness of -0.258 ± 0.12.
With T14N the abundance fitness was -0.278 ± 0.14.
In the case of T14D, the abundance fitness is reported as -0.704 ± 0.17.
Variant K32A has an abundance fitness of -0.048 ± 0.058.
With K32Y the abundance fitness was -0.662 ± 0.14.
K32H gave an abundance fitness of -0.286 ± 0.075.
K32T showed an abundance fitness of -0.055 ± 0.065.
In the case of K32W, the abundance fitness is reported as -0.455 ± 0.14.
Variant K32S has an abundance fitness of -0.107 ± 0.053.
K32P gave an abundance fitness of -0.966 ± 0.16.
Work on Q1H yielded an abundance fitness of 0.119 ± 0.09.
With Q1C the abundance fitness was -0.362 ± 0.14.
Q1M showed an abundance fitness of 0.137 ± 0.13.
Variant Q1T has an abundance fitness of 0.012 ± 0.094.
In the case of Q1F, the abundance fitness is reported as -0.088 ± 0.13.
For Q1S, the abundance fitness was -0.386 ± 0.16.
In the case of K57R, the abundance fitness is reported as -0.164 ± 0.053.
For K57F, the abundance fitness was -0.23 ± 0.086.
K57C showed an abundance fitness of -0.275 ± 0.064.
For K57Q, the abundance fitness was -0.021 ± 0.09.
Variant K57M has an abundance fitness of 0.036 ± 0.088.
In the case of L61V, the abundance fitness is reported as 0.119 ± 0.059.
With L61W the abundance fitness was -0.19 ± 0.08.
In the case of L61F, the abundance fitness is reported as -0.213 ± 0.058.
For L61S, the abundance fitness was 0.22 ± 0.049.
Work on L61K yielded an abundance fitness of 0.247 ± 0.076.
For V4G, the abundance fitness was -0.005 ± 0.063.
V4F gave an abundance fitness of -0.148 ± 0.078.
Work on V4S yielded an abundance fitness of -0.112 ± 0.057.
Variant V4M has an abundance fitness of 0.159 ± 0.082.
With V4A the abundance fitness was -0.202 ± 0.079.
Work on V4E yielded an abundance fitness of 0.155 ± 0.064.
Work on V4C yielded an abundance fitness of -0.097 ± 0.051.
For N22D, the abundance fitness was -0.41 ± 0.31.
N22M showed an abundance fitness of -0.437 ± 0.12.
With N22K the abundance fitness was -0.382 ± 0.13.
With N22F the abundance fitness was -0.298 ± 0.12.
Variant N22I has an abundance fitness of -0.515 ± 0.13.
K58T gave an abundance fitness of -0.079 ± 0.059.
K58V showed an abundance fitness of 0.03 ± 0.061.
K58H showed an abundance fitness of -0.242 ± 0.15.
In the case of K58Y, the abundance fitness is reported as -0.279 ± 0.095.
Work on K58C yielded an abundance fitness of -0.095 ± 0.075.
For K58G, the abundance fitness was -0.068 ± 0.051.
With K58P the abundance fitness was -0.113 ± 0.064.
K58A showed an abundance fitness of 0.016 ± 0.045.
For K58N, the abundance fitness was -0.089 ± 0.088.
For E54I, the abundance fitness was -0.012 ± 0.082.
With E54L the abundance fitness was -0.102 ± 0.045.
In the case of E54G, the abundance fitness is reported as -0.328 ± 0.046.
With A17Y the abundance fitness was -0.087 ± 0.081.
For A17F, the abundance fitness was -0.071 ± 0.075.
For T26V, the abundance fitness was -0.845 ± 0.11.
In the case of T26M, the abundance fitness is reported as -0.862 ± 0.11.
Variant T26L has an abundance fitness of -0.544 ± 0.068.
Variant T26D has an abundance fitness of 0.043 ± 0.085.
For T26Q, the abundance fitness was -0.217 ± 0.071.
Work on T26S yielded an abundance fitness of 0.051 ± 0.055.
Work on T26H yielded an abundance fitness of -0.161 ± 0.13.
E44S gave an abundance fitness of -0.101 ± 0.05.
Work on E44G yielded an abundance fitness of -0.17 ± 0.06.
In the case of E44K, the abundance fitness is reported as 0.066 ± 0.099.
Work on E44D yielded an abundance fitness of 0.069 ± 0.067.
For E44T, the abundance fitness was -0.072 ± 0.076.
E44V gave an abundance fitness of -0.209 ± 0.046.
In the case of K62I, the abundance fitness is reported as -0.538 ± 0.093.
With K62S the abundance fitness was -0.092 ± 0.043.
With K62Q the abundance fitness was -0.118 ± 0.07.
With K50A the abundance fitness was -0.15 ± 0.24.
D39H showed an abundance fitness of -0.065 ± 0.09.
In the case of D39T, the abundance fitness is reported as -0.292 ± 0.092.
With D39P the abundance fitness was -0.829 ± 0.11.
D39L gave an abundance fitness of -0.224 ± 0.042.
With D39R the abundance fitness was -0.016 ± 0.05.
For V30G, the abundance fitness was -1.04 ± 0.17.
V30R showed an abundance fitness of -0.43 ± 0.062.
In the case of V30P, the abundance fitness is reported as -0.776 ± 0.25.
In the case of V30L, the abundance fitness is reported as -0.119 ± 0.051.
Work on V30T yielded an abundance fitness of -0.342 ± 0.13.
With V30A the abundance fitness was -0.896 ± 0.28.
Variant N24L has an abundance fitness of -0.304 ± 0.049.
N24Q showed an abundance fitness of -0.353 ± 0.088.
N24R showed an abundance fitness of -0.063 ± 0.053.
N24P gave an abundance fitness of -0.848 ± 0.14.
In the case of Q21H, the abundance fitness is reported as -0.175 ± 0.082.
With Q21N the abundance fitness was 0.048 ± 0.077.
Q21Y showed an abundance fitness of -0.338 ± 0.1.
In the case of Q21P, the abundance fitness is reported as -0.722 ± 0.14.
Q21A gave an abundance fitness of -0.051 ± 0.058.
With Q21S the abundance fitness was -0.029 ± 0.038.
In the case of S31E, the abundance fitness is reported as 0.015 ± 0.082.
S31R showed an abundance fitness of -0.062 ± 0.047.
Work on S31D yielded an abundance fitness of -0.105 ± 0.27.
With S31L the abundance fitness was -0.637 ± 0.073.
E43Y showed an abundance fitness of 0.076 ± 0.11.
Work on E43K yielded an abundance fitness of -0.218 ± 0.1.
With Y67M the abundance fitness was 0.161 ± 0.082.
In the case of Y67T, the abundance fitness is reported as 0.274 ± 0.078.
Work on Y67W yielded an abundance fitness of -0.158 ± 0.17.
Y67R showed an abundance fitness of 0.306 ± 0.063.
For Y67G, the abundance fitness was 0.263 ± 0.053.
G20I gave an abundance fitness of -0.01 ± 0.099.
G20F showed an abundance fitness of -0.073 ± 0.11.
Variant G20L has an abundance fitness of 0.145 ± 0.052.
G20M gave an abundance fitness of -0.222 ± 0.18.
In the case of G20D, the abundance fitness is reported as 0.192 ± 0.11.
With G20W the abundance fitness was -0.455 ± 0.076.
For K19M, the abundance fitness was 0.027 ± 0.083.
K19Y showed an abundance fitness of -0.151 ± 0.11.
Variant K19W has an abundance fitness of -0.519 ± 0.24.
K19H gave an abundance fitness of -0.197 ± 0.094.
K19V gave an abundance fitness of -0.122 ± 0.056.
K19I gave an abundance fitness of -0.179 ± 0.058.
K19N gave an abundance fitness of -0.557 ± 0.12.
K19P gave an abundance fitness of -1.03 ± 0.18.
Variant Q45V has an abundance fitness of -0.278 ± 0.079.
Q45S showed an abundance fitness of -0.129 ± 0.061.
With Q45I the abundance fitness was -0.479 ± 0.1.
Work on Q45K yielded an abundance fitness of 0.037 ± 0.088.
For Q45T, the abundance fitness was -0.114 ± 0.098.
K2V showed an abundance fitness of -0.201 ± 0.059.
Work on K2F yielded an abundance fitness of -0.083 ± 0.13.
With K2G the abundance fitness was -0.344 ± 0.05.
K2M gave an abundance fitness of -0.335 ± 0.083.
I18T showed an abundance fitness of -0.721 ± 0.19.
For I18V, the abundance fitness was 0.012 ± 0.057.
Work on I18R yielded an abundance fitness of -0.707 ± 0.12.
For I18Q, the abundance fitness was -0.833 ± 0.21.
I18D showed an abundance fitness of -1.11 ± 0.49.
Variant F11M has an abundance fitness of -0.101 ± 0.071.
For F11S, the abundance fitness was -0.264 ± 0.1.
For F11W, the abundance fitness was -0.134 ± 0.088.
A56P gave an abundance fitness of -0.233 ± 0.086.
Variant A56Q has an abundance fitness of -0.017 ± 0.07.
Variant A56C has an abundance fitness of -0.104 ± 0.078.
A56M gave an abundance fitness of -0.063 ± 0.1.
F27H showed an abundance fitness of 0.182 ± 0.094.
With F27N the abundance fitness was 0.295 ± 0.085.
Variant F27Q has an abundance fitness of 0.093 ± 0.079.
L41F gave an abundance fitness of -0.507 ± 0.15.
L41W showed an abundance fitness of -1.05 ± 0.14.
In the case of L41K, the abundance fitness is reported as -0.931 ± 0.14.
L41N gave an abundance fitness of -1.16 ± 0.46.
Work on L41Y yielded an abundance fitness of -0.902 ± 0.23.
For P23T, the abundance fitness was -0.898 ± 0.23.
For P23K, the abundance fitness was -0.37 ± 0.11.
Variant P23Y has an abundance fitness of -0.948 ± 0.29.
Variant P23H has an abundance fitness of -0.615 ± 0.14.
With A35Q the abundance fitness was -0.01 ± 0.071.
In the case of A35P, the abundance fitness is reported as -0.826 ± 0.12.
With A35I the abundance fitness was -0.123 ± 0.12.
Work on A35T yielded an abundance fitness of -0.066 ± 0.08.
For A35W, the abundance fitness was -0.16 ± 0.076.
In the case of A35F, the abundance fitness is reported as -0.375 ± 0.11.
In the case of V34R, the abundance fitness is reported as -1.01 ± 0.14.
V34G showed an abundance fitness of -0.358 ± 0.06.
V34W gave an abundance fitness of -0.92 ± 0.15.
For V34M, the abundance fitness was -0.443 ± 0.092.
Work on V34S yielded an abundance fitness of -0.638 ± 0.091.
With V34A the abundance fitness was -0.012 ± 0.05.
